Patent US20080200654A1 (KIRIN PHARMA, published 2008)

T1: A33 antigen (full-length human A33) (human, UniProt Q99795 22-319)
T1 construct: Class I cell membrane protein of the Ig superfamily; also called GPA33; human A33 antigen
T1 sequence: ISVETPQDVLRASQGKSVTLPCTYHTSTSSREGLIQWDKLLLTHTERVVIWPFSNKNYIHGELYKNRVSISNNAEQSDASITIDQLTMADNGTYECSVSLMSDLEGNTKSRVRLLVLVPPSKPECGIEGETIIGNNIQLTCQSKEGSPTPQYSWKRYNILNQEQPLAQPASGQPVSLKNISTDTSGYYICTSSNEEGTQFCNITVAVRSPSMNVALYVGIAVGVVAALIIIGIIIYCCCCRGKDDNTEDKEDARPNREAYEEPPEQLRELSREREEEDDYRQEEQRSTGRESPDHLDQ


Key:
[1] = target: T1, A33 antigen (full-length human A33); experiment: FCM on LS174T cells; grade = ng/ml to reach half MFI 125 (+++ 10<=x<100, ++ 100<=x<1000, + 1000<=x<10000)
From the text: (§1) The reactivity of each type of purified monoclonal antibody obtained in Example 8 to A33-antigen-expressing human colorectal cancer cell line COLO205 cells, LoVo cells (ATCC No. CCL-229), LS174T cells (ATCC No. CL-188), and NCI-H508 cells (ATCC No. CCL-253) was examined by FCM. Human colorectal cancer cell line HT-29 cells (ATCC No. HTB-38) expressing no A33 antigen were also examined as negative control cells. Each cell line was suspended at a concentration of 2×10⁶/ml in a PBS Staining Buffer (SB) containing 0.1% NaN₃ and 2% FCS. The cell suspension (50 μl/well) was dispensed in a 96-well round bottom plate (produced by Becton, Dickinson and Company). 50 μl of each type of purified monoclonal antibody (adjusted using SB at a concentration of 2000, 400, 80, or 16 ng/ml) was added, and then incubation was performed on ice for 30 minutes. A negative control was prepared depending on each subclass. Specifically, a human IgG1 antibody (produced by Sigma) was adjusted using SB at a concentration of 2000, 400, 80, or 16 ng/ml. 50 μl of the solution was added, followed by 30 minutes of incubation on ice. The resultant was washed twice with SB and then 50 μl of an FITC fluorescence-labeled goat anti-human IgG F(ab′)₂ antibody (produced by Southern Biotech), followed by 30 minutes of incubation on ice. The resultant was washed once with SB and then the resultant was suspended in 300 μl of a FACS buffer. The mean fluorescence intensity of each cell line was measured by FACS (FACScan produced by Becton, Dickinson and Company).
(§2) For COLO205 cells, the half value of the mean fluorescence intensity was determined to be 90. For LoVo cells, the half value of the mean fluorescence intensity was determined to be 25. […] When an antibody concentration required to reach such value was 10<=x<100 ng/ml, the reactivity was represented by +++, when the same was 100<=x<1000 ng/ml, the reactivity was represented by ++, and when the same was 1000<=x<10000 ng/ml, the reactivity was represented by +. When no binding was observed, the reactivity was represented by −.

[2] = target: T1, A33 antigen (full-length human A33); experiment: FCM on LoVo cells; grade = ng/ml to reach half MFI 25 (+++ 10<=x<100, ++ 100<=x<1000, + 1000<=x<10000)
From the text: as §1, §2

[3] = target: T1, A33 antigen (full-length human A33); experiment: FCM on NCI-H508 cells; grade = ng/ml to reach half MFI 175 (+++ 10<=x<100, ++ 100<=x<1000, + 1000<=x<10000)
[4] = target: T1, A33 antigen (full-length human A33); experiment: FCM competition on COLO205 cells as in Example 10; competitor mouse anti-A33 antibody
Description: (§3) Whether or not each type of purified monoclonal antibody obtained in Example 8 recognizes an epitope similar to that of the mouse anti-A33 antibody was examined by a competition test using FCM. The COLO205 cell line was suspended at a concentration of 2×10⁶/ml in a PBS Staining Buffer (SB) containing 0.1% NaN₃ and 2% FCS. The cell suspension (50 μl/well) was dispensed in a 96-well round bottom plate (produced by Becton, Dickinson and Company). The purified mouse anti-A33 antibody prepared in Example 1 was not added or added at a concentration of 100 μg/ml to the wells containing each type of purified monoclonal antibody (1 μg/ml and 50 μl), followed by 30 minutes of incubation on ice. A mouse negative control (containing no purified anti-A33 antibody added thereto) was prepared as follows. A human IgG1 antibody (produced by Sigma) was adjusted at a concentration of 1 μg/ml with SB and then 50 μl of the solution was added, followed by 30 minutes of incubation on ice. The resultant was washed twice with SB and then 50 μl of FITC fluorescence-labeled goat anti-human IgG F(ab′)₂ antibody (produced by IBL) was added, followed by 30 minutes of incubation on ice. The resultant was washed once with SB and then the resultant was suspended in 300 μl of a FACS buffer. The mean fluorescence intensity of each cell line was measured by FACS (FACScan produced by Becton, Dickinson and Company). The inhibition (%) between each type of purified monoclonal antibody and the mouse A33 antibody was calculated by the following formula: […]

[5] = target: T1, A33 antigen (full-length human A33); experiment: FCM on COLO205 cells; grade = ng/ml to reach half MFI 90 (+++ 10<=x<100, ++ 100<=x<1000, + 1000<=x<10000)
From the text: as §1, §2

[6] = target: T1, A33 antigen (full-length human A33); experiment: FCM on NCI-H508 cells; grade = ng/ml to reach half MFI 125 (+++ 10<=x<100, ++ 100<=x<1000, + 1000<=x<10000)
From the text: as §1, §2

[7] = target: T1, A33 antigen (full-length human A33); experiment: FCM competition on COLO205 cells; antibody 1 µg/ml, competitor mouse anti-A33 antibody 100 µg/ml
Description: as §3

[8] = target: T1, A33 antigen (full-length human A33); experiment: FCM on COLO205 cells; grade = ng/ml to reach half MFI 45 (+++ 10<=x<100, ++ 100<=x<1000, + 1000<=x<10000)
[9] = target: T1, A33 antigen (full-length human A33); experiment: FCM on LS174T cells; grade = ng/ml to reach half MFI 100 (+++ 10<=x<100, ++ 100<=x<1000, + 1000<=x<10000)

Binder | antibody concentration required to reach half value of mean fluorescence intensity [1] [ng/mL] | antibody concentration required to reach half value of mean fluorescence intensity [2] [ng/mL] | antibody concentration required to reach half value of the mean fluorescence intensity [3] [ng/mL] | Inhibition (%) [4] [%] | antibody concentration required to reach half value of mean fluorescence intensity [5] [ng/mL] | antibody concentration required to reach half value of mean fluorescence intensity [6] [ng/mL] | Inhibition (%) [7] [%] | antibody concentration required to reach half value of the mean fluorescence intensity [8] [ng/mL] | antibody concentration required to reach half value of the mean fluorescence intensity [9] [ng/mL]
chimeric anti-A33 antibody (antibody, V domains shown, Mouse variable regions with human IgG1 heavy chain and light chain constant regions (N5KG1-Val Lark vector); also called cA33; chimeric anti-A33 recombinant antibody) VH: EVKLVESGGGLVKPGGSLKLSCAASGFAFSTYDMSWVRQTPEKRLEWVATISSGGSYTYYLDSVKGRFTISRDSARNTLYLQMSSLRSEDTALYYCAPTTVVPFAYWGQGTLVTVSS VL: DIVMTQSQKFMSTSVGDRVSITCKASQNVRTVVAWYQQKPGQSPKTLIYLASNRHTGVPDRFTGSGSGTDFTLTISNVQSEDLADYFCLQHWSYPLTFGSGTKLEVK | 100 to 1000 | 10 to 100 | 10 to 100 | 94.6 | 10 to 100 | 100 to 1000 | 94.2 | 10 to 100 | 10 to 100
recM10 (antibody, V domains shown, also called recM10 antibody; M10 recombinant antibody) VH: QLQVQESGPGLVKPSETLSLICTVSGGSIRTSGYYWGWFRQPPGKGLEWIGTSHNSGSTYYNPSLKSRVTISVDTSKNQFSLKLNSVTAADTAVYYCARQGYDFKVNIDVWGQGTTVTVSS VL: EIVLTQSPATLSLSPGERATLSCRASQSVSSYLAWYQQKPGQAPRLLIYDASNRATGIPARFSGSGSGTDFTLTISSLEPEDFAVYYCQQRSNWPLTFGGGTKVEIK | – | – | 10 to 100 | 0.2 | – | – | – | 10 to 100 | 10 to 100
recM165 (antibody, V domains shown, also called recM165 antibody; M165 recombinant antibody) VH: QVQLVESGGGVVQPGRSLRLSCAASGFTFSYYGMHWVRQAPGKGLEWVAVIWYDGSNKYYADSVKGRFTISRDNSKKTLYLQMNSLRAEDTAVYYCARDGHSSGWGDFQHWGQGTLVTVSS VL: EIVLTQSPATLSLSPGERATLSCRASQSVSSSLAWYQQKPGQAPRLLIYDASNRATGIPARFSGSGSGTDFTLTISSLEPEDFAIYYCQQRSNWPPTFGQGTKVEIK | – | – | 100 to 1000 | 93.4 | – | – | – | 100 to 1000 | 100 to 1000
recN26 (antibody, V domains shown, also called recN26 antibody; N26 recombinant antibody) VH: QVQLVESGGGVVQPGRSLRLSCAASGFTFSHYGMHWVRQAPGKGLEWVALIWYDGSNKYYADSVKGRFTISRDNSKNTLYLQMNSLRAEDTAVYYCARDPLAAGTSYFDYWGQGTLVTVSS VL: EIVLTQSPDFQSVTPKEKVTITCRASQSIGSSLHWYQQKPDQSPKLLIKYASQSFSGVPSRFSGSGSGTDFTLTINSLEAEDAAAYYCHQSSSLPFTFGPGTKVDIK | – | – | 10 to 100 | 95.3 | – | – | – | 100 to 1000 | 10 to 100
recQ54 (antibody, V domains shown, also called recQ54 antibody; Q54 recombinant antibody) VH: EVQLLESGGGLVQPGGSLRLSCAASGFTFSSYAMSWVRQAPGKGLEWVSDISGSGGYTYYADSVKGRFTISRDNSKNTLYLQMNSLRAEDTAVYYCAKTGDGSGSYSPDSWGQGTLVTVSS VL: DIQMTQSPSSLSASVGDRVTITCRASQGISRWLAWYQQKPEKAPKSLIYAASSLQSGVPSRFSGSGSGTDFTLTISSLQPEDFATYYCQQYNSYPYTFGQGTKLEIK | – | – | 10 to 100 | 44.6 | – | – | – | 10 to 100 | 10 to 100
